Values belong to the sequence of their own block, whether it stands above or below them.
Assays:
HLA-A*24:02 = assay: IEDB peptide-MHC binding, purified MHC/competitive/fluorescence; ≥ and ≤ were set here for values at or beyond the usual limits of such assays
HLA-B*07:02 [1] = assay: as above
HLA-A*02:01 [2] = assay: IEDB peptide-MHC binding, purified MHC/competitive/fluorescence; filed as Kd, often an IC50 or EC50 that approximates it; ≥ and ≤ were set here for values at or beyond the usual limits of such assays
HLA-B*08:01 = assay: IEDB peptide-MHC binding, purified MHC/direct/fluorescence; filed as Kd, often an IC50 or EC50 that approximates it; ≥ and ≤ were set here for values at or beyond the usual limits of such assays
HLA-B*08:02 = assay: as above
HLA-A*03:01 [3] = assay: as above
HLA-B*18:01 [4] = assay: as above; conditions: source organism: West Nile virus
HLA-B*27:05 = assay: as above; conditions: source organism: West Nile virus
HLA-A*29:02 = assay: as above
HLA-A*69:01 [5] = assay: as above; conditions: source organism: West Nile virus
HLA-B*40:01 = assay: as above; conditions: source organism: West Nile virus
HLA-B*46:01 [6] = assay: as above; conditions: source organism: West Nile virus
HLA-B*51:01 [7] = assay: as above
HLA-B*44:02 = assay: as above; conditions: source organism: West Nile virus
HLA-A*01:01 = assay: as above; conditions: source organism: West Nile virus
HLA-A*31:01 = assay: as above; conditions: source organism: West Nile virus
HLA-A*02:01 [8] = assay: as above; conditions: source organism: West Nile virus
HLA-B*58:01 = assay: as above; conditions: source organism: West Nile virus
HLA-A*11:01 [9] = assay: as above; conditions: source organism: West Nile virus
HLA-B*15:01 [10] = assay: as above; conditions: source organism: West Nile virus
HLA-A*03:01 [11] = assay: IEDB peptide-MHC binding, purified MHC/competitive/fluorescence; ≥ and ≤ were set here for values at or beyond the usual limits of such assays; conditions: source organism: Vaccinia virus Copenhagen
HLA-A*11:01 [12] = assay: as above; conditions: source organism: Vaccinia virus Copenhagen
HLA-B*07:02 [13] = assay: IEDB peptide-MHC binding, purified MHC/direct/fluorescence; filed as Kd, often an IC50 or EC50 that approximates it; ≥ and ≤ were set here for values at or beyond the usual limits of such assays; conditions: source organism: Brucella abortus
HLA-B*18:01 [14] = assay: IEDB peptide-MHC binding, purified MHC/competitive/fluorescence; filed as Kd, often an IC50 or EC50 that approximates it; ≥ and ≤ were set here for values at or beyond the usual limits of such assays; conditions: source organism: Zaire ebolavirus
HLA-A*26:01 = assay: as above; conditions: source organism: Zaire ebolavirus
HLA-A*69:01 [15] = assay: as above; conditions: source organism: Zaire ebolavirus
HLA-B*46:01 [16] = assay: as above; conditions: source organism: Zaire ebolavirus
HLA-B*51:01 [17] = assay: as above; conditions: source organism: Zaire ebolavirus
HLA-B*27:03 = assay: as above; conditions: source organism: Zaire ebolavirus
HLA-B*39:01 = assay: as above; conditions: source organism: Zaire ebolavirus
HLA-B*15:01 [18] = assay: as above; conditions: source organism: Zaire ebolavirus
HLA-B*57:01 = assay: as above; conditions: source organism: Zaire ebolavirus
HLA-B*15:17 = assay: as above; conditions: source organism: Zaire ebolavirus
HLA-A*24:03 = assay: IEDB peptide-MHC binding, purified MHC/direct/fluorescence; filed as Kd, often an IC50 or EC50 that approximates it; ≥ and ≤ were set here for values at or beyond the usual limits of such assays
HLA-A*02:16 = assay: as above
HLA-A*02:03 = assay: as above
HLA-A*02:11 = assay: as above
HLA-A*02:12 = assay: as above
HLA-A*68:02 = assay: as above
HLA-A*02:19 = assay: as above
HLA-A*02:01 [19] = assay: IEDB peptide-MHC binding, purified MHC/competitive/fluorescence; ≥ and ≤ were set here for values at or beyond the usual limits of such assays
HLA-B*15:01 [20] = assay: as above
HLA-A*23:01 = assay: IEDB peptide-MHC binding, purified MHC/direct/fluorescence; filed as Kd, often an IC50 or EC50 that approximates it; ≥ and ≤ were set here for values at or beyond the usual limits of such assays; conditions: source organism: Entamoeba histolytica HM-1:IMSS
[21] = source organism: Zaire ebolavirus
[22] = source organism: Giardia lamblia ATCC 50803
[23] = source organism: West Nile virus
[24] = source organism: Vaccinia virus Copenhagen
[25] = source organism: Sudan ebolavirus
[26] = source organism: Ebola virus Yambio0403

Sequence: AAPDGIRGF
IC50 (HLA-A*24:02; [21]): 69.8 µM
IC50 (HLA-B*07:02 [1]; [21]): 12.2 µM

Sequence: ELRKRNEAL
Kd (HLA-A*02:01 [2]; [22]): ≥ 20 µM
Kd (HLA-B*08:01; [22]): 0.042 µM
Kd (HLA-B*08:02; [22]): 2.82 µM

IC50 (HLA-B*07:02 [1]; source organism: Homo sapiens): 0.166 µM
Sequence: GPRGALSLL

Sequence: HSRRSRRSL
Kd (HLA-A*03:01 [3]; [23]): ≥ 20 µM
Kd (HLA-B*18:01 [4]): ≥ 20 µM
Kd (HLA-B*27:05): ≥ 20 µM
Kd (HLA-A*29:02; [23]): ≥ 20 µM
Kd (HLA-A*69:01 [5]): ≥ 20 µM
Kd (HLA-B*08:01; [23]): 0.211 µM
Kd (HLA-B*40:01): ≥ 20 µM
Kd (HLA-B*46:01 [6]): ≥ 20 µM
Kd (HLA-B*51:01 [7]; [23]): ≥ 20 µM
Kd (HLA-B*44:02): ≥ 20 µM
Kd (HLA-B*08:02; source organism: West Nile virus strain PTRoxo): 5.67 µM
Kd (HLA-A*01:01): ≥ 20 µM
Kd (HLA-A*31:01): ≥ 20 µM
Kd (HLA-A*02:01 [8]): ≥ 20 µM
Kd (HLA-B*58:01): ≥ 20 µM
Kd (HLA-A*11:01 [9]): ≥ 20 µM
Kd (HLA-B*15:01 [10]): ≥ 20 µM

Sequence: IPYFGPAAE
IC50 (HLA-B*07:02 [1]; [21]): ≥ 135 µM

Sequence: KITFALKKL
IC50 (HLA-A*03:01 [11]): 11.3 µM
IC50 (HLA-A*24:02; [24]): 34.8 µM
IC50 (HLA-B*07:02 [1]; [24]): 61.2 µM
IC50 (HLA-A*11:01 [12]): 19.3 µM

Sequence: KPGPDNSTH
IC50 (HLA-B*07:02 [1]; [21]): ≥ 191 µM

Sequence: LPAIIRPSF
Kd (HLA-B*51:01 [7]; source organism: Brucella abortus): ≥ 20 µM
Kd (HLA-B*07:02 [13]): 0.104 µM

Sequence: LPKTSGHYD
IC50 (HLA-B*07:02 [1]; [21]): ≥ 182 µM

Sequence: MLKRRGFHL
Kd (HLA-B*08:02; source organism: Salmonella enterica subsp. enterica serovar Typhi str. CT18): 0.102 µM

Sequence: MPSSYAAGM
Kd (HLA-B*51:01 [7]; [22]): 0.863 µM

Sequence: NYNGLLSSI
Kd (HLA-B*18:01 [14]): ≥ 20 µM
Kd (HLA-A*26:01): ≥ 20 µM
Kd (HLA-A*69:01 [15]): ≥ 20 µM
Kd (HLA-B*46:01 [16]): ≥ 20 µM
Kd (HLA-B*51:01 [17]): ≥ 20 µM
Kd (HLA-A*02:01 [2]; [21]): ≥ 20 µM
Kd (HLA-B*27:03): ≥ 20 µM
Kd (HLA-B*39:01): ≥ 20 µM
Kd (HLA-B*15:01 [18]): ≥ 20 µM
Kd (HLA-B*57:01): ≥ 20 µM
Kd (HLA-B*15:17): ≥ 20 µM
Kd (HLA-A*24:03; source organism: Ebola virus - Gabon (1994-1997)): 0.0003 µM
Kd (HLA-A*03:01 [3]; [21]): ≥ 20 µM
Kd (HLA-A*02:16; [21]): ≥ 20 µM
Kd (HLA-A*02:03; [21]): ≥ 20 µM
Kd (HLA-A*02:11; [21]): ≥ 20 µM
Kd (HLA-A*02:12; [21]): ≥ 20 µM
Kd (HLA-A*68:02; [21]): ≥ 20 µM
Kd (HLA-A*02:19; [21]): ≥ 20 µM

Sequence: QFLSFASLF
Kd (HLA-B*18:01 [14]): ≥ 20 µM
Kd (HLA-A*26:01): ≥ 20 µM
Kd (HLA-A*69:01 [15]): ≥ 20 µM
Kd (HLA-B*46:01 [16]): ≥ 20 µM
Kd (HLA-B*51:01 [17]): ≥ 20 µM
Kd (HLA-A*02:01 [2]; [21]): ≥ 20 µM
Kd (HLA-B*27:03): ≥ 20 µM
Kd (HLA-B*39:01): ≥ 20 µM
Kd (HLA-B*57:01): ≥ 20 µM
Kd (HLA-B*15:17): ≥ 20 µM
IC50 (HLA-A*24:02; [21]): 0.0128 µM
IC50 (HLA-A*02:01 [19]; [21]): ≥ 88.1 µM
IC50 (HLA-B*15:01 [20]; [21]): 9.93 µM
Kd (HLA-A*24:03; source organism: Reston ebolavirus): 0.0027 µM
Kd (HLA-A*03:01 [3]; [21]): ≥ 20 µM
Kd (HLA-A*02:16; [21]): ≥ 20 µM
Kd (HLA-A*02:03; [21]): ≥ 20 µM
Kd (HLA-A*02:11; [21]): ≥ 20 µM
Kd (HLA-A*02:12; [21]): ≥ 20 µM
Kd (HLA-A*68:02; [21]): ≥ 20 µM
Kd (HLA-A*02:19; [21]): ≥ 20 µM

Sequence: QLKSVGLNL
IC50 (HLA-A*24:02; [25]): 24.5 µM
IC50 (HLA-B*07:02 [1]; [25]): 6.4 µM
IC50 (HLA-A*02:01 [19]; [25]): 7.56 µM
IC50 (HLA-B*15:01 [20]; [25]): 14.4 µM

Sequence: QYIHLLCNK
Kd (HLA-A*24:03; source organism: Entamoeba histolytica HM-1:IMSS): 1.11 µM
Kd (HLA-A*23:01): 0.2 µM

Sequence: RYEFTAPFI
Kd (HLA-B*18:01 [14]): ≥ 20 µM
Kd (HLA-A*26:01): ≥ 20 µM
Kd (HLA-A*69:01 [15]): ≥ 20 µM
Kd (HLA-B*46:01 [16]): ≥ 20 µM
Kd (HLA-B*51:01 [17]): ≥ 20 µM
Kd (HLA-A*02:01 [2]; [21]): ≥ 20 µM
Kd (HLA-B*27:03): ≥ 20 µM
Kd (HLA-B*39:01): ≥ 20 µM
Kd (HLA-B*15:01 [18]): ≥ 20 µM
Kd (HLA-B*57:01): ≥ 20 µM
Kd (HLA-B*15:17): ≥ 20 µM
Kd (HLA-A*24:03; [21]): 0.0002 µM
Kd (HLA-A*03:01 [3]; [26]): ≥ 20 µM
Kd (HLA-A*02:16; [26]): ≥ 20 µM
Kd (HLA-A*29:02; [26]): ≥ 20 µM
Kd (HLA-A*02:03; [26]): ≥ 20 µM
Kd (HLA-A*02:11; [26]): ≥ 20 µM
Kd (HLA-A*02:12; [26]): ≥ 20 µM
Kd (HLA-A*68:02; [26]): ≥ 20 µM
Kd (HLA-A*02:19; [26]): ≥ 20 µM

Sequence: TPTVAPPAP
IC50 (HLA-B*07:02 [1]; [21]): ≥ 145 µM

Reference: the Immune Epitope Database (IEDB)
